The source of these data is patent US20130011436A1.

For the experiment, the target named is CXCR4 on murine 4T1 breast carcinoma cells (murine) (UniProt P70658). The experiment can be described thus: cell-based or functional assay.
UniProt P70658, sequence (P70658 whole entry): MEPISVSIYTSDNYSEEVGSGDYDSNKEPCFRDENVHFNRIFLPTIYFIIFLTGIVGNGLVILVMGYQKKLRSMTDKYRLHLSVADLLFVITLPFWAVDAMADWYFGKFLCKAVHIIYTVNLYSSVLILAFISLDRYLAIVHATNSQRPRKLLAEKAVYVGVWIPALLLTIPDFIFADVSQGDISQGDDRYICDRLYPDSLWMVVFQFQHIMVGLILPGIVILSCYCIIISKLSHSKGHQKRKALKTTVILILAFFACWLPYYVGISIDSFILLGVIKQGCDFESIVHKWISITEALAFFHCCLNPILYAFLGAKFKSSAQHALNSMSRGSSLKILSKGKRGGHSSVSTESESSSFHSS

For the substance CTCE-9908 peptide, the inhibition of migration of 4T1 cells toward SDF1 (1,000 ng/ml), transwell assay, antagonist at 100 µg/ml was > 80%.
